Paper PMC8748658

Molecular target: L1-70-Myc
Test: ELISA; purified L1-70-Myc coated in PBS on 96-well plates; purified Top1-HA at 0.1, 0.5, 1, 5 and 10 nM, 2 h at 37 °C; detection with rabbit anti-HA, TMB

B1: Top1-HA (enzyme)
chain: MSGDHLHNDSQIEADFRLNDSHKHKDKHKDREHRHKEHKKDKDKDREKSKHSNSEHKDSEKKHKEKEKTKHKDGSSEKHKDKHKDRDKERRKEEKIRAAGDAKIKKEKENGFSSPPRIKDEPEDDGYFAPPKEDIKPLKRLRDEDDADYKPKKIKTEDIKKEKKRKSEEEEDGKLKKPKNKDKDKKVAEPDNKKKKPKKEEEQKWKWWEEERYPEGIKWKFLEHKGPVFAPPYEPLPESVKFYYDGKVMKLSPKAEEVATFFAKMLDHEYTTKEIFRKNFFKDWRKEMTNDEKNTITNLSKCDFTQMSQYFKAQSEARKQMSKEEKLKIKEENEKLLKEYGFCVMDNHRERIANFKIEPPGLFRGRGNHPKMGMLKRRIMPEDIIINCSKDAKVPSPPPGHKWKEVRHDNKVTWLVSWTENIQGSIKYIMLNPSSRIKGEKDWQKYETARRLKKCVDKIRNQYREDWKSKEMKVRQRAVALYFIDKLALRAGNEKEEGETADTVGCCSLRVEHINLHPELDGQEYVVEFDFPGKDSIRYYNKVPVEKRVFKNLQLFMENKQPEDDLFDRLNTGILNKHLQDLMEGLTAKVFRTYNASITLQQQLKELTAPDENVPAKILSYNRANRAVAILCNHQRAPPKTFEKSMMNLQSKIDAKKDQLADARRDLKSAKADAKVMKDAKTKKVVESKKKAVQRLEEQLMKLEVQATDREENKQIALGTSKLNYLDPRITVAWCKKWGVPIEKIYNKTQREKFAWAIDMTDEDYEF
In the case of B1, the concentration of Top1-HA at saturation is reported as 1 nM.
